Results taken from patent US20060264369, “Aptamers to von Willebrand Factor and their use as thrombotic disease therapeutics” (published 2006).
Substitutions are numbered along the chain they refer to.

Key:
[1] = molecular target: T1, von Willebrand factor full length (Homo sapiens, UniProt P04275 SEQ:764-2813); assay: filter; no binding; settings: tags: Calbiochem 681300; label: 5'-32P
Experimental: (§1) For KD determination, chemically synthesized aptamers were purified using denaturing polyacrylamide gel electrophoresis, 5′end labeled with γ-³²P ATP and were tested for direct binding to full length human vWF (Calbiochem Cat.# 681300, La Jolla, Calif.). An 8 point protein titration was used in the dot blot binding assay (100 nM, 30 nM, 10 nM, 3 nM, 1 nM, 300 pM, 100 pM, 0 pM)) in 1× Dulbecco's PBS containing […] (final volume of 50 uL) for 30 minutes at room temperature. KD values were calculated by fitting the equation y=(max/(1+K/protein))+yint using KaleidaGraph (KaleidaGraph v. 3.51, Synergy Software).

[2] = molecular target: T1, von Willebrand factor full length; assay: filter; DPBS, 0.1 mg/mL BSA, RT; settings: tags: Calbiochem 681300; label: 5'-32P
Experimental: (§2) KD values were calculated by fitting the equation y=(max/(1+K/protein))+yint using KaleidaGraph (KaleidaGraph v. 3.51, Synergy Software).

[3] = molecular target: von Willebrand factor A1 domain (human) (Homo sapiens, UniProt P04275 SEQ:13-246); assay: filter; 100 nM protein
Description: When a significant positive ratio of binding of RNA in the presence of human or rabbit vWF A1 domain versus in the absence of protein was seen, the pools were cloned using the TOPO TA cloning kit (Invitrogen, Cat.# 45-0641, Carlsbad, Calif.) according to the manufacturer's instructions. Round 9 and 12 pool templates were cloned and sequenced (125 total sequences), producing 48 unique clones. All unique clones were transcribed, desalted, 5-³²P end-labeled, and assayed in a 3-point dot blot screen (no protein target control, 100 nM human vWF A1 domain (SEQ ID NO 5, FIG. 3), or 100 nM rabbit vWF A1 domain (SEQ ID NO 6, FIG. 3). The data is presented in the third and fourth columns of Table 4 below as the ratio of the fraction of the aptamer bound to the nitrocellulose in the presence of the target protein to the fraction of aptamer bound in the absence of the target protein.

[4] = molecular target: T1, von Willebrand factor full length; assay: filter; 26% bound at 100 nM vWF; settings: tags: Calbiochem 681300; label: 5'-32P
Experimental: as §1

[5] = molecular target: T1, von Willebrand factor full length; assay: filter; 46% bound at 100 nM; settings: tags: Calbiochem 681300
Experimental: as §1

[6] = molecular target: T1, von Willebrand factor full length; assay: filter; 43% bound at 100 nM; settings: tags: Calbiochem 681300
Experimental: as §1

[7] = molecular target: T1, von Willebrand factor full length; assay: filter; 40% bound at 100 nM; settings: tags: Calbiochem 681300
Experimental: as §1

[8] = molecular target: T1, von Willebrand factor full length; assay: filter; 50% bound at 100 nM; settings: tags: Calbiochem 681300
Experimental: as §1

[9] = molecular target: T1, von Willebrand factor full length; assay: cell_activity; IC90 BIPA in human platelet rich plasma
Experimental: In order to determine the activity of aptamers on live human platelets, BIPA assays were done using freshly prepared platelet rich plasma. Blood was obtained from healthy human donors who had not taken NSAIDS for at least five days. […] Collected blood was pooled into 15 mL conical tubes and was spun at 200 g for 20 minutes. The turbid, yellow layer of platelet rich plasma (“PRP”) was withdrawn from the tubes, pooled, and set aside at room temperature. The remaining blood was spun at 2500 g for ten minutes. The clarified layer of plasma, known as platelet poor plasma (“PPP”), was withdrawn and set aside at room temperature. PRP was aliquoted into cuvettes containing stir bars at a volume of 470 uL. A sample of 500 uL of PPP was aliquoted into a cuvette and placed in the PPP reference cell of the platelet aggregometer. Samples of PRP were prewamed at 37 degrees C. in the platelet aggregometer for 3-5 minutes before being used in BIPA assays. First, the concentration of botrocetin needed to induce platelet aggregation for each individual donor was determined by titration. This concentration of botrocetin was used for the remainder of the experiment. Next, aptamer was assayed by adding titrations of aptamer (zero, 1 nM to 1000 nM) to prewarmed PRP for one minute, followed by addition of botrocetin. With platelet aggregation, an increase in amplitude of light transmission is seen (FIG. 8). The concentration at which platelet aggregation is blocked at 90% or greater after 6 minutes is reported in the final column of Table 26.

[10] = molecular target: T2, von Willebrand factor A1 domain (Homo sapiens, UniProt P04275 SEQ:13-246); assay: filter; no binding; settings: label: 5'-32P
[11] = molecular target: T1, von Willebrand factor full length; assay: filter; DPBS, 0.1 mg/mL BSA, RT; settings: tags: Calbiochem 681300; label: 5'-32P; remark: listed apart in the source
Experimental: Based on this initial screen, KDs were determined for 3 of the vWF dependent binding sequences using the dot blot assay. […] A 12 point protein titration was used in the dot blot assay (300 nM, 100 nM, 30 nM, 10 nM, 3 nM, 1 nM, 300 pM, 100 pM, 30 pM, 10 pM, 3 pM, 0 pM) in 1× DPBS plus 0.1 mg/mL BSA at room temperature for 30 minutes. KD values were calculated by fitting the equation y=(max/(1+K/protein))+yint using KaleidaGraph (KaleidaGraph v. 3.51, Synergy Software).

[12] = molecular target: T2, von Willebrand factor A1 domain; assay: filter; DPBS, 0.1 mg/mL BSA, RT; settings: label: 5'-32P
Experimental: as §2

GGCGUGCAGUGCUUCGCCGTGCGGTGCCUCCGUCACGCC (mixed, 2'-OMe/deoxy composite, 3'-idT) [ARC1347]: no binding [1].

With GGAGCCACACGACATTGGCGGGTTGTAATTACCACGCATGGCTCC (mixed, 2'-OH purines, deoxy pyrimidines) [rRdY minimer SEQ 189] the Kd [2] was 1 nM.

B1: AMX201.A8 (ssRNA)
RNA: GGAGCGCACUCAGCCACGCUGUACACUGAUGUUGUAACAUGUACCCCCUGGCUGUUUCGACCUCUCUGCUAGC
modifications: 2'-F pyrimidines
In the case of B1, the binding signal [3] is reported as 1.82 ratio to no protein.

GGGACGGGGTGGGTAGACGGCGGGTATGTCCC (mixed, 2'-OH purines, deoxy pyrimidines) [rRdY minimer SEQ 183] was tested, and the Kd [2] was 10 nM.

GGCGTGCAGTGCCTTCGGCCGTGCGGTGCCTCCGTCACGCC (ssDNA, 2'-OMe C30, 3'-idT) [ARC1223] gave a Kd [4] of 36 nM.

With GGCGTGCAGTGCCTTCGGCCGTGCGGTGCCTCCGTCACGCC (ssDNA, 2'-OMe at 37; 3'-idT) [ARC1230] the Kd [5] was 3 nM.

In the case of GGCGTGCAGTGCCTTCGGCCGTGCGGTGCCTCCGTCACGCC (ssDNA, 2'-OMe at 11,17,18; 3'-idT) [ARC1238], the Kd [6] is reported as 2 nM.

Work on GGCGTGCAGTGCCTTCGGCCGTGCGGTGCCTCCGTCACGCC (ssDNA, 2'-OMe at 34; 3'-idT) [ARC1227] yielded a Kd [7] of 3 nM.

With GGCGTGCAGTGCCTTCGGCCGTGCGGTGCCTCCGTCACGCC (ssDNA, 2'-OMe at 4; 3'-idT) [ARC1197] the Kd [5] was 2 nM.

In the case of GGCGTGCAGTGCCTTCGGCCGTGCGGTGCCTCCGTCACGCC (ssDNA, 2'-OMe at 28; 3'-idT) [ARC1221], the Kd [6] is reported as 1 nM.

GGCGTGCAGTGCCTTCGGCCGTGCGGTGCCTCCGTCACGCC (ssDNA, 2'-OMe at 38; 3'-idT) [ARC1231] showed a Kd [8] of 1 nM.

GGCGTGCAGTGCCTTCGGCCGTGCGGTGCCTCCGUCACGCC (ssDNA, 2'-OMe at 35 (mU); 3'-idT) [ARC1228] showed a Kd [6] of 2 nM.

With GGCGTGCAGTGCCTTCGGCCGTGCGGTGCCTCCGTCACGCC (ssDNA, 2'-OMe at 3; 3'-idT) [ARC1196] the Kd [5] was 2 nM.

GGCGTGCAGTGCCTTCGGCCGTGCGGTGCCTCCGTCACGCC (ssDNA, 2'-OMe at 13; 3'-idT) [ARC1206] was tested, and the Kd [8] was 2 nM.

Work on GGCGTGCAGTGCCTTCGGCCGTGCGGTGCCTCCGTCACGCC (ssDNA, 2'-OMe at 23; 3'-idT) [ARC1216] yielded a Kd [7] of 0.6 nM.

GGCGTGCAGTGCCTTCGGCCGTGCGGTGCCTCCGTCACGCC (ssDNA, 2'-OMe at 11,12,13,17,18,19; 3'-idT) [ARC1240] was tested, and the Kd [7] was 4 nM.

With GGCGUGCAGUGCCUUCGGCCGTGCGGTGCCTCCGTCACGCC (mixed, 2'-OMe at 1-5, 9-19, 37-41, 3'-idT) [ARC1341] the Kd [4] was 22.5 nM.

Binder GGCGTGCAGTGCCTTCGGCCGTGCGGTGCCTCCGTCACGCC (ssDNA, 5'-PEG20K-hexylamine; 3'-idT) [ARC1885] has an activity [9] of roughly 50 nM.

GGCGTGCAGTGCCTTCGGCCGTGCGGTGCCTCCGTCACGCC (ssDNA, 2'-OMe at 12; 3'-idT) [ARC1205] was tested, and the Kd [8] was 1 nM.

In the case of GGCGTGCAGUGCCTTCGGCCGTGCGGTGCCTCCGTCACGCC (ssDNA, 2'-OMe at 10 (mU); 3'-idT) [ARC1203], the Kd [7] is reported as 3 nM.

GGCGTGCAGTGCCTTCGGCCGTGCGGTGCCTCCGTCACGCC (ssDNA, 2'-OMe at 20; 3'-idT) [ARC1213] gave a Kd [6] of 6 nM.

Work on GGCGTGCAGTGCCTTCGGCCGTGCGGTGCCTCCGTCACGCC (ssDNA, 2'-OMe at 29; 3'-idT) [ARC1222] yielded a Kd [7] of 0.9 nM.

GGCGTGCAGTGCCTTCGGCCGTGCGGTGCCTCCGTCACGCC (ssDNA, 2'-OMe at 1; 3'-idT) [ARC1194] gave a Kd [5] of 3 nM.

CGATCTGACTAGCGGAATGAGAATGCTGGTGGATCG (ssDNA) [DNA1 minimer SEQ 206]: no binding [10].

B2: AMX237.G6 (ssDNA)
DNA: CTACCTACGATCTGACTAGCGTGCAGTGCCTATTCCAGGCCGTGCGGTGCCTCCGTCACGCTTACTCTCATGTAGTTCC
B2 gave a Kd [11] of 0.2 nM.

B3: AMX238.E9 (ssDNA)
DNA: B2 DNA with T31C, T34C, C35T, C36T
B3 was tested, and the Kd [11] was 0.39 nM.

B4: AMX238.H5 (ssDNA)
DNA: B2 DNA with C36T
B4 showed a Kd [11] of 0.33 nM.

GGAGCCACGGGGTGGGTAGACGGCGGGTATGTGGCTCC (mixed, 2'-OH purines, deoxy pyrimidines) [rRdY minimer SEQ 180] gave a Kd [12] of 11 nM and a Kd [2] of 1 nM.

B5: ARC1779 (mixed)
mixed: GCGUGCAGUGCCUUCGGCCGTGCGGTGCCUCCGUCACGC
modifications: 2'-OMe at 1-4,8-18,20,22,27,28,30,33,34,36-39, rest deoxy; PS between 20 and 21; 5'-PEG20K-hexylamine; 3'-idT
Binder B5 has an activity [9] of roughly 100 nM.

B6: ARC1780 (mixed)
mixed: B5 mixed
modifications: 2'-OMe at 1-4,8-18,20,22,27,28,30,33,34,36-39, rest deoxy; PS between 20 and 21; 5'-PEG40K-hexylamine; 3'-idT [2'-OMe at 1-4,8-18,20,22,27,28,30,33,34,36-39, rest deoxy; PS between 20 and 21 (printed S left out); 5'-PEG40K-hexylamine (left out); 3'-idT at 40]
B6 showed an activity [9] of roughly 100 nM.

CCAGCGGAATGAGAATGCTGATGGATTGCTCAGGTCTGCTGG (ssDNA) [DNA1 minimer SEQ 204]: no binding [10].

B7: AMX201.D3 (ssRNA)
RNA: GGAGCGCACUCAGCCACGCCCACGUCAAAUUAUAGUCUACUUUGAUGUGCCCGUGGUUUCGACCUCUCUGCUAGC
modifications: 2'-F pyrimidines
With B7 the binding signal [3] was 1.76 ratio to no protein.

GCGUGCAGUGCUUCGCCGTGCGGTGCCUCCGUCACGC (mixed, 2'-OMe/deoxy composite, 3'-idT) [ARC1348]: no binding [1].

GGAGCCACACGACATTGGCGGGCGAGAGCCACGCATGGCTCC (mixed, 2'-OH purines, deoxy pyrimidines) [rRdY minimer SEQ 192] gave a Kd [12] of 4 nM and a Kd [2] of 2 nM.

In the case of GGCCACACGACATTGGCGGGCGAGAGCCACGCATGGCC (mixed, 2'-OH purines, deoxy pyrimidines) [rRdY minimer SEQ 198], the Kd [12] is reported as 5 nM and the Kd [2] is reported as 3 nM.

CCGGCCGTGCGGTGCCUCCGUCACGUUCCGUGCAGUGCCGG (mixed, 2'-OMe/deoxy composite, single PS, 3'-idT) [ARC1546] gave a Kd [4] of 24 nM.
